Experimental data published in patent publication US20070293656A1, “COLLAGEN BINDING PEPTIDES” (Epix Pharmaceuticals, Inc., priority 2005, published 2007).
Bridge positions count the residues as written; N and C are the ends. Ends that are not written are not given here.

B1: SEQ ID NO: 12 (peptide)
peptide: PMICHAPYVGKCNFL
modifications: disulfide 4-12 (inferred)
B2: SEQ ID NO: 22 (peptide)
peptide: DWECHGNEFEWNCLMR
modifications: disulfide 4-13 (inferred)
B3: SEQ ID NO: 99 (peptide)
peptide: AKKCWYNDGGHLRCRTL
modifications: disulfide 4-14 (inferred)
B4: SEQ ID NO: 31 (peptide)
peptide: GWVCGGDHTTWECHLQ
modifications: disulfide 4-13 (inferred)
B5: SEQ ID NO: 44 (peptide)
peptide: GWNCYEYDSQWICDHL
modifications: disulfide 4-13 (inferred)
B6: SEQ ID NO: 9 (peptide)
peptide: TWNCYGVTEWHCYMI
modifications: disulfide 4-12 (inferred)
B7: SEQ ID NO: 46 (peptide)
peptide: GWVCLQKGPKWVCDWD
modifications: disulfide 4-13 (inferred)
B8: SEQ ID NO: 6 (peptide)
peptide: TWQCSGNQKWSCEWF
modifications: disulfide 4-12 (inferred)
B9: SEQ ID NO: 20 (peptide)
peptide: PWYCSGDHLDWKCIYQ
modifications: disulfide 4-13 (inferred)
B10: SEQ ID NO: 94 (peptide)
peptide: WTDCQWMDEQLWTCRWD
modifications: disulfide 4-14 (inferred)
B11: SEQ ID NO: 95 (peptide)
peptide: WTDCQWMDEQIWTCRWD
modifications: disulfide 4-14 (inferred)
B12: SEQ ID NO: 90 (peptide)
peptide: TWACGWTTTGWDNCRWI
modifications: disulfide 4-14 (inferred)
B13: SEQ ID NO: 93 (peptide)
peptide: WWACQKGQHDWEKCHWL
modifications: disulfide 4-14 (inferred)
B14: SEQ ID NO: 27 (peptide)
peptide: SWHCFGDNENWMCNLR
modifications: disulfide 4-13 (inferred)
B15: SEQ ID NO: 35 (peptide)
peptide: YWVCGGDHQSWHCSHP
modifications: disulfide 4-13 (inferred)
B16: SEQ ID NO: 4 (peptide)
peptide: TWMCVDPPLWRCWVQ
modifications: disulfide 4-12 (inferred)
B17: SEQ ID NO: 11 (peptide)
peptide: PLVCHPPYSGSCSLH
modifications: disulfide 4-12 (inferred)
B18: SEQ ID NO: 43 (peptide)
peptide: PWQCYSDKTSWVCNLY
modifications: disulfide 4-13 (inferred)
B19: SEQ ID NO: 33 (peptide)
peptide: AWTCVGGEKTWGCVWN
modifications: disulfide 4-13 (inferred)
B20: SEQ ID NO: 42 (peptide)
peptide: TWRCDQFKGKWVCRGG
modifications: disulfide 4-13 (inferred)
B21: SEQ ID NO: 88 (peptide)
peptide: FWTCMRDQVGEWHCGTE
modifications: disulfide 4-14 (inferred)
B22: SEQ ID NO: 17 (peptide)
peptide: DWTCSGDEYTWHCNYE
modifications: disulfide 4-13 (inferred)
B23: SEQ ID NO: 15 (peptide)
peptide: DWTCYGDEYTWHCNYE
modifications: disulfide 4-13 (inferred)
B24: SEQ ID NO: 19 (peptide)
peptide: DWTCSGDEYRWHCNYE
modifications: disulfide 4-13 (inferred)
B25: SEQ ID NO: 18 (peptide)
peptide: DWTCSGDEYTWYCNYE
modifications: disulfide 4-13 (inferred)
B26: SEQ ID NO: 14 (peptide)
peptide: DWTCRGDEYTWHCNYE
modifications: disulfide 4-13 (inferred)
B27: SEQ ID NO: 16 (peptide)
peptide: DWTCSGDEYYWHCNYE
modifications: disulfide 4-13 (inferred)
B28: SEQ ID NO: 96 (peptide)
peptide: WQLCSSRNDHVAYCFVS
modifications: disulfide 4-14 (inferred)
B29: SEQ ID NO: 101 (peptide)
peptide: WWTCHMTWSGQWDSCKWH
modifications: disulfide 4-15 (inferred)
B30: SEQ ID NO: 10 (peptide)
peptide: LTVCHPPYYGRCNFV
modifications: disulfide 4-12 (inferred)
B31: SEQ ID NO: 48 (peptide)
peptide: AWSCWIVEGRWNCSDI
modifications: disulfide 4-13 (inferred)
B32: SEQ ID NO: 102 (peptide)
peptide: WAYCMTDPSGKYRYCQNW
modifications: disulfide 4-15 (inferred)
B33: SEQ ID NO: 45 (peptide)
peptide: EWQCTQYANQWNCKYN
modifications: disulfide 4-13 (inferred)
B34: SEQ ID NO: 7 (peptide)
peptide: NWYCTGTKSWECFWK
modifications: disulfide 4-12 (inferred)
B35: SEQ ID NO: 28 (peptide)
peptide: SWICTGDNIDWNCRFA
modifications: disulfide 4-13 (inferred)
B36: SEQ ID NO: 100 (peptide)
peptide: WWGCRQGTGEHWSHCMWF
modifications: disulfide 4-15 (inferred)
B37: SEQ ID NO: 49 (peptide)
peptide: AWFCSQKNRLWSCGET
modifications: disulfide 4-13 (inferred)
B38: SEQ ID NO: 5 (peptide)
peptide: NWKCWGVVKWECIWA
modifications: disulfide 4-12 (inferred)
B39: SEQ ID NO: 24 (peptide)
peptide: EWLCVGDSLKWYCKHS
modifications: disulfide 4-13 (inferred)
B40: SEQ ID NO: 50 (peptide)
peptide: KWFCELMQDQWQCGSK
modifications: disulfide 4-13 (inferred)
B41: SEQ ID NO: 51 (peptide)
peptide: KWFCELMHDQWQCGSK
modifications: disulfide 4-13 (inferred)
B42: SEQ ID NO: 40 (peptide)
peptide: EWRCRGDSSSWLCDYT
modifications: disulfide 4-13 (inferred)
B43: SEQ ID NO: 103 (peptide)
peptide: YPACDDQTHLWNLACWPA
modifications: disulfide 4-15 (inferred)
B44: SEQ ID NO: 23 (peptide)
peptide: AWDCSGNIPTWYCRRL
modifications: disulfide 4-13 (inferred)
B45: SEQ ID NO: 21 (peptide)
peptide: DWTCVGDHKTWKCNFH
modifications: disulfide 4-13 (inferred)
B46: SEQ ID NO: 34 (peptide)
peptide: MWDCTGNSAEWRCEMQ
modifications: disulfide 4-13 (inferred)
B47: SEQ ID NO: 89 (peptide)
peptide: KWHCELDSHMEWSCSGH
modifications: disulfide 4-14 (inferred)
B48: SEQ ID NO: 41 (peptide)
peptide: VWACRGGTTNWHCDL
modifications: disulfide 4-13 (inferred)
B49: SEQ ID NO: 29 (peptide)
peptide: DWICHGDFDTWKCDLQ
modifications: disulfide 4-13 (inferred)
B50: SEQ ID NO: 32 (peptide)
peptide: NWVCSGDHADWSCALI
modifications: disulfide 4-13 (inferred)
B51: SEQ ID NO: 26 (peptide)
peptide: WRCDGDAHDWHCDWF
modifications: disulfide 3-12 (inferred)
B52: SEQ ID NO: 97 (peptide)
peptide: WISCESSEEKISYCWRA
modifications: disulfide 4-14 (inferred)
B53: SEQ ID NO: 25 (peptide)
peptide: IWLCTGGAATWNCKFD
modifications: disulfide 4-13 (inferred)
B54: SEQ ID NO: 52 (peptide)
peptide: RWSCWLDENGWKCDGT
modifications: disulfide 4-13 (inferred)
B55: SEQ ID NO: 92 (peptide)
peptide: TWACGWTTTGWDNCRWI
modifications: disulfide 4-14 (inferred)
B56: SEQ ID NO: 30 (peptide)
peptide: GWDCQGTDNIWECVRK
modifications: disulfide 4-13 (inferred)
B57: SEQ ID NO: 47 (peptide)
peptide: PWTCRMTENTWVCDLN
modifications: disulfide 4-13 (inferred)

Molecular target: T1, human collagen type I (acid soluble, extracted from placenta, Sigma C7774) (human, UniProt P02452 162-1218; P08123 80-1119)
T1 construct: gelled and dried as a fibril film in the assay; also called dried human collagen; h-Collagen
T1 sequence (P02452 162-1218 limits assumed, chain 1 of 2): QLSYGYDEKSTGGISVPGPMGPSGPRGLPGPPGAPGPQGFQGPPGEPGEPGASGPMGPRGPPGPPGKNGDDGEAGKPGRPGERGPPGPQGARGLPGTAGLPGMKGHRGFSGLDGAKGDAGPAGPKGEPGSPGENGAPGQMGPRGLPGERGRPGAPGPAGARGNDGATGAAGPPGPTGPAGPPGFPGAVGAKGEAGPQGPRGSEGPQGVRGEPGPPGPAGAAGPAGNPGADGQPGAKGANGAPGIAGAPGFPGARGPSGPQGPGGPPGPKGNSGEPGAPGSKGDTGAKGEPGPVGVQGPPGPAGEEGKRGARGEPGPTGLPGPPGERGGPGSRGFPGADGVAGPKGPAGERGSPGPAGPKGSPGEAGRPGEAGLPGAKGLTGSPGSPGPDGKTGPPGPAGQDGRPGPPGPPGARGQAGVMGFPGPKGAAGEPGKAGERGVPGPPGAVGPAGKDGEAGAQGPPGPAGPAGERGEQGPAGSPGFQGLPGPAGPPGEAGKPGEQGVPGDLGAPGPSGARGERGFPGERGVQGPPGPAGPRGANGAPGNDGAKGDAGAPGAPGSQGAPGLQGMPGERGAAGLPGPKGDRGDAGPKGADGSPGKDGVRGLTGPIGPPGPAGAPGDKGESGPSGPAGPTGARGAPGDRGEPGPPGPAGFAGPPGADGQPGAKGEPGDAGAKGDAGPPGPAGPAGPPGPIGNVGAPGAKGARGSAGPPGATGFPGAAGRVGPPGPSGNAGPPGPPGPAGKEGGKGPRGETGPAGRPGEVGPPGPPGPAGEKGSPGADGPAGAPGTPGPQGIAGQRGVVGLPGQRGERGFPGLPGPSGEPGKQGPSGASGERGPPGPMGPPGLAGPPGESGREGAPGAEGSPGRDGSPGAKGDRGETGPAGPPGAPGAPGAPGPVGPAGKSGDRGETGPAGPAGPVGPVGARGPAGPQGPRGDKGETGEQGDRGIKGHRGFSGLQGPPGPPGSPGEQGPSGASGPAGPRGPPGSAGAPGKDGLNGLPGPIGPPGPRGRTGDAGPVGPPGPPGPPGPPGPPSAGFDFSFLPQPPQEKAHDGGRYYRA
T1 sequence (P08123 80-1119 limits assumed, chain 2 of 2): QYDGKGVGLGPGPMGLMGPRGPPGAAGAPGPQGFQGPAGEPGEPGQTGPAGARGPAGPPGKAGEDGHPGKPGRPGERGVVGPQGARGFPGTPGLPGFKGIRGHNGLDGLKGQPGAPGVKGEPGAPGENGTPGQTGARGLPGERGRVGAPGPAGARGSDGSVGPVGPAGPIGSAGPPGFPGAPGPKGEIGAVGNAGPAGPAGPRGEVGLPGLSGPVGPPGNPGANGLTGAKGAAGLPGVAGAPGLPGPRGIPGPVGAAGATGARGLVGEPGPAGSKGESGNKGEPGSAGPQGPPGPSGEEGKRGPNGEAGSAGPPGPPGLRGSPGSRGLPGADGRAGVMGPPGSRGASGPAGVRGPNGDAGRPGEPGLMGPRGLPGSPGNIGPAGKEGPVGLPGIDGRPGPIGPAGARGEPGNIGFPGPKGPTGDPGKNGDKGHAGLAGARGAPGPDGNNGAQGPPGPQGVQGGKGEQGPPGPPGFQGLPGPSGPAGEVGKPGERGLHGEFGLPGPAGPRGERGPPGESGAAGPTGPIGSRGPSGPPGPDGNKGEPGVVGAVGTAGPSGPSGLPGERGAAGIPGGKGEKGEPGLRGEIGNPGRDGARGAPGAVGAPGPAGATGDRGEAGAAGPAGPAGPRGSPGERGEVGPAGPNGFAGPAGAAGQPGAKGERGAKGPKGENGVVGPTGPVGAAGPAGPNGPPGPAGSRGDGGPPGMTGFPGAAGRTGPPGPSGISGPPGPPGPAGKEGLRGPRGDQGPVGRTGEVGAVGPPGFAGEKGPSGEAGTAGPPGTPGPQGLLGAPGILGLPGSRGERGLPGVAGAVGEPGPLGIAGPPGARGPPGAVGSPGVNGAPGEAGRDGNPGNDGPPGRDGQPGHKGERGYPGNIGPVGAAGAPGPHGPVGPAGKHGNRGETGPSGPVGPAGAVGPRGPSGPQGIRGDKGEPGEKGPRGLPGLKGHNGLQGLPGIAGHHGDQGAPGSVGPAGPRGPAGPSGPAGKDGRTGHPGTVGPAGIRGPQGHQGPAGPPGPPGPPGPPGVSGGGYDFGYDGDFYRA
Assay: dried collagen assay
Experimental: An additional 90 μL is reserved in a HPLC glass vial as a measure of the total concentration.

Row | Binder | % bound
1 | B1 | 7%
2 | B2 | 55%
3 | B3 | 3%
4 | B4 | 15%
5 | B5 | 28%
6 | B6 | 7%
7 | B7 | 23%
8 | B8 | 20%
9 | B9 | 64%
10 | B10 | 21%
11 | B11 | 5%
12 | B12 | 34%
13 | B13 | 5%
14 | B14 | 24%
15 | B15 | 8%
16 | B16 | 45%
17 | B17 | 9%
18 | B18 | 30%
19 | B19 | 12%

Row | Binder | % bound
20 | B20 | 40%
21 | B21 | 1%
22 | B22 | 78%
23 | B23 | 83%
24 | B24 | 70%
25 | B25 | 78%
26 | B26 | 83%
27 | B27 | 83%
28 | B28 | 17%
29 | B29 | 56%
30 | B30 | 9%
31 | B31 | 22%
32 | B32 | 31%
33 | B33 | 25%
34 | B34 | 11%
35 | B35 | 20%
36 | B36 | 67%
37 | B37 | 19%
38 | B38 | 24%

Row | Binder | % bound
39 | B39 | 43%
40 | B40 | 18%
41 | B41 | 18%
42 | B42 | 3%
43 | B43 | 2%
44 | B44 | 44%
45 | B45 | 57%
46 | B46 | 11%
47 | B47 | 1%
48 | B48 | 1%
49 | B49 | 16%
50 | B50 | 12%
51 | B51 | 25%
52 | B52 | 13%
53 | B53 | 39%
54 | B54 | 15%
55 | B55 | 34%
56 | B56 | 16%
57 | B57 | 22%
